Measurements: the Human Domainome abundance scans (Beltran et al. 2025)
± gives the uncertainty stated by the source.

Assay: abundance fitness (aPCA) (normalised: wild type 0, dead -1); higher = more abundant; growth selection in yeast, the domain comes from the species named
Conditions: Homo sapiens
In the case of “Transcription factor SOX-4 S103L, Q06945”, the abundance fitness is reported as -0.454 ± 0.082.
Transcription factor SOX-4 S70A, Q06945 showed an abundance fitness of 0.014 ± 0.057.
In the case of Transcription factor SOX-4 I89L, Q06945, the abundance fitness is reported as -0.098 ± 0.036.

Same assay, conditions: Saccharomyces cerevisiae (strain ATCC 204508 / S288c)
“E3 ubiquitin-protein ligase RSP5 P362Y, P39940” showed an abundance fitness of -1.01 ± 0.18.
For “E3 ubiquitin-protein ligase RSP5 E338P, P39940”, the abundance fitness was -0.874 ± 0.083.
For “E3 ubiquitin-protein ligase RSP5 V360E, P39940”, the abundance fitness was -0.154 ± 0.053.
With “E3 ubiquitin-protein ligase RSP5 T326S, P39940” the abundance fitness was 0.014 ± 0.054.
Substance “E3 ubiquitin-protein ligase RSP5 Q366Y, P39940” has an abundance fitness of 0.307 ± 0.21.
“E3 ubiquitin-protein ligase RSP5 L333E, P39940” gave an abundance fitness of -0.64 ± 0.075.
Work on “E3 ubiquitin-protein ligase RSP5 N353K, P39940” yielded an abundance fitness of -0.141 ± 0.08.
“E3 ubiquitin-protein ligase RSP5 T342W, P39940” showed an abundance fitness of -0.865 ± 0.054.
In the case of “E3 ubiquitin-protein ligase RSP5 G329C, P39940”, the abundance fitness is reported as 0.077 ± 0.082.
Substance “E3 ubiquitin-protein ligase RSP5 T326A, P39940” has an abundance fitness of -0.023 ± 0.05.
For “E3 ubiquitin-protein ligase RSP5 P343F, P39940”, the abundance fitness was -0.417 ± 0.49.
“E3 ubiquitin-protein ligase RSP5 R340A, P39940” gave an abundance fitness of 0.018 ± 0.047.
With “E3 ubiquitin-protein ligase RSP5 W359T, P39940” the abundance fitness was -0.342 ± 0.055.
With “E3 ubiquitin-protein ligase RSP5 E344P, P39940” the abundance fitness was -0.428 ± 0.071.
Substance “E3 ubiquitin-protein ligase RSP5 E332F, P39940” has an abundance fitness of -0.165 ± 0.12.
“E3 ubiquitin-protein ligase RSP5 T357M, P39940” gave an abundance fitness of -0.33 ± 0.094.
“E3 ubiquitin-protein ligase RSP5 V350D, P39940” showed an abundance fitness of -0.604 ± 0.11.
“E3 ubiquitin-protein ligase RSP5 S335N, P39940” gave an abundance fitness of -0.015 ± 0.084.
Work on “E3 ubiquitin-protein ligase RSP5 P334A, P39940” yielded an abundance fitness of -0.61 ± 0.07.
For “E3 ubiquitin-protein ligase RSP5 G336H, P39940”, the abundance fitness was -0.157 ± 0.2.
With “E3 ubiquitin-protein ligase RSP5 F349G, P39940” the abundance fitness was -0.703 ± 0.043.
Work on “E3 ubiquitin-protein ligase RSP5 T342Q, P39940” yielded an abundance fitness of -0.226 ± 0.067.
Work on “E3 ubiquitin-protein ligase RSP5 R346W, P39940” yielded an abundance fitness of -0.017 ± 0.073.
With “E3 ubiquitin-protein ligase RSP5 E332D, P39940” the abundance fitness was 0.038 ± 0.074.
Substance “E3 ubiquitin-protein ligase RSP5 D351R, P39940” has an abundance fitness of -0.864 ± 0.05.
“E3 ubiquitin-protein ligase RSP5 P334D, P39940” gave an abundance fitness of -0.592 ± 0.091.
Substance “E3 ubiquitin-protein ligase RSP5 P362H, P39940” has an abundance fitness of -0.905 ± 0.28.
“E3 ubiquitin-protein ligase RSP5 T358I, P39940” showed an abundance fitness of -1.07 ± 0.38.
In the case of “E3 ubiquitin-protein ligase RSP5 G336E, P39940”, the abundance fitness is reported as -0.562 ± 0.059.
With “E3 ubiquitin-protein ligase RSP5 S335Q, P39940” the abundance fitness was -0.094 ± 0.051.
“E3 ubiquitin-protein ligase RSP5 L333G, P39940” gave an abundance fitness of -0.708 ± 0.043.
“E3 ubiquitin-protein ligase RSP5 E338M, P39940” showed an abundance fitness of -0.402 ± 0.047.
In the case of “E3 ubiquitin-protein ligase RSP5 G331I, P39940”, the abundance fitness is reported as -0.071 ± 0.068.
“E3 ubiquitin-protein ligase RSP5 Q339W, P39940” showed an abundance fitness of -0.406 ± 0.046.
“E3 ubiquitin-protein ligase RSP5 W337L, P39940” gave an abundance fitness of -0.53 ± 0.06.
“E3 ubiquitin-protein ligase RSP5 R346H, P39940” showed an abundance fitness of 0.289 ± 0.096.
With “E3 ubiquitin-protein ligase RSP5 P343E, P39940” the abundance fitness was -0.019 ± 0.043.
With “E3 ubiquitin-protein ligase RSP5 Y348P, P39940” the abundance fitness was -1.17 ± 0.086.
“E3 ubiquitin-protein ligase RSP5 G345D, P39940” gave an abundance fitness of -0.271 ± 0.26.
“E3 ubiquitin-protein ligase RSP5 G325E, P39940” gave an abundance fitness of -0.031 ± 0.067.
“E3 ubiquitin-protein ligase RSP5 Q365M, P39940” showed an abundance fitness of -0.022 ± 0.17.
Substance “E3 ubiquitin-protein ligase RSP5 D351V, P39940” has an abundance fitness of -1.24 ± 0.068.
“E3 ubiquitin-protein ligase RSP5 S328G, P39940” gave an abundance fitness of -0.113 ± 0.042.
With “E3 ubiquitin-protein ligase RSP5 T358D, P39940” the abundance fitness was -0.659 ± 0.091.
For “E3 ubiquitin-protein ligase RSP5 G331N, P39940”, the abundance fitness was -0.01 ± 0.1.
Work on “E3 ubiquitin-protein ligase RSP5 R340W, P39940” yielded an abundance fitness of -0.088 ± 0.054.
For “E3 ubiquitin-protein ligase RSP5 G336T, P39940”, the abundance fitness was -0.461 ± 0.072.
“E3 ubiquitin-protein ligase RSP5 T358R, P39940” showed an abundance fitness of -0.781 ± 0.046.
“E3 ubiquitin-protein ligase RSP5 T327D, P39940” showed an abundance fitness of 0.121 ± 0.07.
Work on “E3 ubiquitin-protein ligase RSP5 P343S, P39940” yielded an abundance fitness of 0.07 ± 0.056.
Work on “E3 ubiquitin-protein ligase RSP5 Q339M, P39940” yielded an abundance fitness of -0.008 ± 0.069.
Work on “E3 ubiquitin-protein ligase RSP5 N353M, P39940” yielded an abundance fitness of -0.132 ± 0.062.
“E3 ubiquitin-protein ligase RSP5 E344I, P39940” showed an abundance fitness of -0.215 ± 0.091.
“E3 ubiquitin-protein ligase RSP5 L333D, P39940” showed an abundance fitness of -0.472 ± 0.14.
Substance “E3 ubiquitin-protein ligase RSP5 R363K, P39940” has an abundance fitness of -0.41 ± 0.057.
Substance “E3 ubiquitin-protein ligase RSP5 Q339S, P39940” has an abundance fitness of -0.138 ± 0.047.
Work on “E3 ubiquitin-protein ligase RSP5 P343N, P39940” yielded an abundance fitness of 0.116 ± 0.098.
With “E3 ubiquitin-protein ligase RSP5 Q365V, P39940” the abundance fitness was -0.014 ± 0.045.
With “E3 ubiquitin-protein ligase RSP5 R355L, P39940” the abundance fitness was -0.192 ± 0.049.
Work on “E3 ubiquitin-protein ligase RSP5 G324N, P39940” yielded an abundance fitness of 0.182 ± 0.12.
In the case of “E3 ubiquitin-protein ligase RSP5 D361E, P39940”, the abundance fitness is reported as -0.266 ± 0.053.
For “E3 ubiquitin-protein ligase RSP5 H352S, P39940”, the abundance fitness was -0.297 ± 0.051.
“E3 ubiquitin-protein ligase RSP5 W337I, P39940” showed an abundance fitness of -0.23 ± 0.085.
“E3 ubiquitin-protein ligase RSP5 Q365S, P39940” gave an abundance fitness of 0.038 ± 0.062.
For “E3 ubiquitin-protein ligase RSP5 H352V, P39940”, the abundance fitness was -0.361 ± 0.056.
In the case of “E3 ubiquitin-protein ligase RSP5 H352C, P39940”, the abundance fitness is reported as -0.384 ± 0.067.
Work on “E3 ubiquitin-protein ligase RSP5 W337P, P39940” yielded an abundance fitness of -0.883 ± 0.061.
With “E3 ubiquitin-protein ligase RSP5 W359I, P39940” the abundance fitness was -0.258 ± 0.1.
With “E3 ubiquitin-protein ligase RSP5 E332A, P39940” the abundance fitness was 0.03 ± 0.051.
In the case of “E3 ubiquitin-protein ligase RSP5 P362L, P39940”, the abundance fitness is reported as -0.993 ± 0.051.
Substance “E3 ubiquitin-protein ligase RSP5 E332G, P39940” has an abundance fitness of -0.066 ± 0.046.
In the case of “E3 ubiquitin-protein ligase RSP5 Y348K, P39940”, the abundance fitness is reported as -0.666 ± 0.072.
